Series [1] deals with O=C[C@H](O)[C@H](O)COP(=O)(O)O. Put plainly: purified protein, by the assay type. To be noted: other: 1.5 mM PEP, 37° C., pH 7.5.
Procedure: (§1) To examine their functional properties, the recombinant DHS enzymes of Brachypodium were produced and characterized in vitro.
(§2) All DHS effectors tested were included in the initial reaction mixtures at a concentration of 0.5 mM, except for IC50 determination for arogenate and tryptophan, in which variable concentrations were used. To ensure at least 10 minutes of linear reaction, enzyme mass per reaction was carefully adjusted to between 100 to 300 ng (depending on the specific activity of each specific isoform) using DHS storage buffer supplemented with BSA. […] The enzymatic reaction was started with the addition of E4P (variable concentration, see below).
(§3) The DHS assay for UHPLC-MS quantification was set up using the same settings as described in the previous paragraph for the UV-based DHS assay, which guaranteed at least 10 minutes of reaction linearity. After a 10-minute incubation, 20 μL of the reactions (out of a total volume of 50 μL) were mixed into 80 μL of methanol, vortexed and transferred to vials for injection. Analysis of DAHP by UHPLC-MS was conducted using the same chromatographic settings as described for the UHPLC-MS analysis of soluble metabolites and compared with an authentic DAHP standard (Sta. Cruz biotechnology, cat. no. sc-216432).
Series [2] deals with C=C(OP(=O)(O)O)C(=O)O. Put plainly: purified protein, by the assay type. The note with it: other: 2 mM E4P, 37° C., pH 7.5.
The test system of series [3] is O=C[C@H](O)[C@H](O)COP(=O)(O)O. Put plainly: DHS activity: kinetics and effector inhibition. Format: biochemical, Brachypodium distachyon. To be noted: other: 1.5 mM PEP, 37° C., pH 7.5.
Procedure: as §1, §2, §3

Chain of Brachypodium distachyon BdDHS1b, SEQ ID NO: 3, recombinant (Brachypodium distachyon) (chain, as listed by the source): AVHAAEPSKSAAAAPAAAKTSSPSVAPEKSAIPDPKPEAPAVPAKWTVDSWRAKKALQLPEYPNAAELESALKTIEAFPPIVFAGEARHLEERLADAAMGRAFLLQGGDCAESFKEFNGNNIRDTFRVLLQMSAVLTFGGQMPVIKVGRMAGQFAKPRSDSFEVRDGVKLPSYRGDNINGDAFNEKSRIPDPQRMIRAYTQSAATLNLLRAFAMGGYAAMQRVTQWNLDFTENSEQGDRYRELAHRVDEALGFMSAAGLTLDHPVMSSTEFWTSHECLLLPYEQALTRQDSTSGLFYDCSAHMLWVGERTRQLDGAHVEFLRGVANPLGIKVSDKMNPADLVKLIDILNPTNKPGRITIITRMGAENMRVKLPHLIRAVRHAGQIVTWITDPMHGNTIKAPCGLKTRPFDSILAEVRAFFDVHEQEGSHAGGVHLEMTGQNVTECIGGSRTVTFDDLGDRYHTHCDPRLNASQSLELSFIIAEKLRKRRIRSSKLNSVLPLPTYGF
Chain of Brachypodium distachyon BdDHS2, SEQ ID NO: 5, recombinant (Brachypodium distachyon) (chain, as listed by the source): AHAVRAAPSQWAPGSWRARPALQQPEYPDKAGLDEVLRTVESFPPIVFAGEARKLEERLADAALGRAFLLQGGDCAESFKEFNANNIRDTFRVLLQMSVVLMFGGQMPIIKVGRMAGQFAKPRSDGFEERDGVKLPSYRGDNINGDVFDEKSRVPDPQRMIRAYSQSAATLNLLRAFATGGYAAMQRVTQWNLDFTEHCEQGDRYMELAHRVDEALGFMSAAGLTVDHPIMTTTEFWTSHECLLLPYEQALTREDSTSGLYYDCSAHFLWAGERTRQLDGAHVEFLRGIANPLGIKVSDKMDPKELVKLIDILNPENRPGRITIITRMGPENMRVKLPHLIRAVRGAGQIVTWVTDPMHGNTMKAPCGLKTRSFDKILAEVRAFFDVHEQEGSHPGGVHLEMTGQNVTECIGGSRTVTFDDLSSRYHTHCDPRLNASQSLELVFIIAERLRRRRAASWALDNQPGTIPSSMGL
Chain of Brachypodium distachyon BdDHS1a, SEQ ID NO: 1, recombinant (Brachypodium distachyon) (chain, as listed by the source): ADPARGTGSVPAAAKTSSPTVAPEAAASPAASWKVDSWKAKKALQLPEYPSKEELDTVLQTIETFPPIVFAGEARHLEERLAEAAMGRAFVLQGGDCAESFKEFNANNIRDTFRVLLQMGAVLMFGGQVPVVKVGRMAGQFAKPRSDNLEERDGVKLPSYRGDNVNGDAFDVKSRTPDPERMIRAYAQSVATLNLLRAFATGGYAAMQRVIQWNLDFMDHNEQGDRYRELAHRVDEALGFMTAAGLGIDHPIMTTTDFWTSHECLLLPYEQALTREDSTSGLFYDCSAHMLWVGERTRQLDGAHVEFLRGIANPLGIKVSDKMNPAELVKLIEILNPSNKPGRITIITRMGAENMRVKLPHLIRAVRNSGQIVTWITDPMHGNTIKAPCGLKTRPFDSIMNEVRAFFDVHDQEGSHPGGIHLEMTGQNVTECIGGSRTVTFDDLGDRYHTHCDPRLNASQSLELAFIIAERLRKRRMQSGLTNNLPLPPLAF

Usually kcat stands for the maximal rate divided by the concentration of active sites. What is called Km is the substrate concentration at which the rate is half of its maximum. As usually defined, the kcat/Km is the second-order rate constant that governs catalysis at low substrate concentration. “Brachypodium distachyon BdDHS1a, SEQ ID NO: 1, recombinant (Brachypodium distachyon)”: in series [1], the K0.5 is reported as 0.55 mM and the kcat amounted to 17 s⁻¹. In series [2], the Km amounted to 130 µM, the kcat was found to be 17 s⁻¹ and the kcat/Km was found to be 126000 M⁻¹ s⁻¹.

Turning to “Brachypodium distachyon BdDHS1b, SEQ ID NO: 3, recombinant (Brachypodium distachyon)”, in series [2], the Michaelis-Menten constant (Km) was 200 µM, the kcat was determined as 11.3 s⁻¹ and the kcat/Km is 57200 M⁻¹ s⁻¹.

“Brachypodium distachyon BdDHS2, SEQ ID NO: 5, recombinant (Brachypodium distachyon)”: in series [3], the K0.5 was 0.51 mM and the kcat was 5.6 s⁻¹. Further, in series [2], the Michaelis-Menten constant (Km) stood at 190 µM, the kcat came out at 5.6 s⁻¹ and the kcat/Km stood at 29000 M⁻¹ s⁻¹.

The values above are taken from US20250115926A1, “DEREGULATED DHS AND TYRA ENZYMES OF GRASSES ENABLE EFFICIENT PRODUCTION OF BOTH TYROSINE AND PHENYLALANINE” (priority 2023, published 2025).
